{"source": "paper PMC9898101", "key": {"MBP-ERS I212T (human)": {"test_system": "MBP-ERS I212T (human)", "assay": "EMSA", "conditions": "1 mM Mg2+; 5 ug/mL heparin (unit prefix not given); none (in vitro transcript); 25 mM Tris-HCl pH 7.5, 50 mM NaCl, 1 mM MgCl2, 1 mM DTT, 5 ug/mL heparin (prefix not given), 10 nM 32P-tRNA, room temperature 30 min; native 4-16% gel on …"}, "MBP-ERS M487V (human)": {"test_system": "MBP-ERS M487V (human)", "assay": "EMSA", "conditions": "1 mM Mg2+; 5 ug/mL heparin (unit prefix not given); none (in vitro transcript); 25 mM Tris-HCl pH 7.5, 50 mM NaCl, 1 mM MgCl2, 1 mM DTT, 5 ug/mL heparin (prefix not given), 10 nM 32P-tRNA, room temperature 30 min; native 4-16% gel on …"}}}
{"substance": "human tRNAGlu(TTC)", "values": [{"measurement": "Kd", "setting": "MBP-ERS I212T (human)", "result": 2, "unit": "µM"}, {"measurement": "Kd", "setting": "MBP-ERS M487V (human)", "result": 1.2, "unit": "µM"}]}
